Experimental data as given in publication PMC12097149.

How the values were obtained:
[1] = target: mouse CARMIL2 Q538E (untagged, CARMIL2^QE) (mouse); assay: co-IP; Immunoprecipitation with anti-CARMIL2 (EM-53) from lysates of short-term expanded mouse CD8+ (OT-I) and CD4+ T cells (Carmil2^QE, Carmil2^QE Cd28-/-), immunoblot with anti-CARMIL2 and anti-CARD11; cells untreated or treated with pervanadate for 2 and 5 min at 37°C
[2] = target: mouse CARMIL2 Q538E tagged with a Twin-Strep-tag at the N terminus (CARMIL2^QE-OST) (mouse); assay: affinity purification with mass spectrometry; OST-tagged CARMIL2 purified on Strep-Tactin Sepharose beads from lysates of short-term expanded mouse CD4+ T cells, untreated or treated with pervanadate for 2, 5 and 10 min; label-free quantitative MS, interaction stoichiometries

fold lower level of complexes in unstimulated Carmil2^QE Cd28-/- CD4+ T cells than in unstimulated Carmil2^QE CD4+ T cells [1]: 2 fold
fold increase of the interaction stoichiometry after T cell activation over that in resting cells [2]: 7 fold
percent of the available CARMIL2^QE-OST molecules complexed to CARD11 after 2 min of activation [2]: 12%
B1: mouse CARD11 (natural protein)
chain: MPGGGPAMDDYMETLKDEEEALWDNVECNRHMLSRYINPAKLTPYLRQCKVIDEQDEDEVLNAPMLPSKINRAGRLLDILHTKGQRGYVVFLESLEFYYPELYKLVTGKEPTRRFSTIVVEEGHEGLTHFLMNEVIKLQQQVKAKDLQRCELLAKSRQLEDEKKQLSLIRVELLTFQERYYKMKEERDSYNDELVKVKDDNYNLAMRYAQLSEEKNMAVMRSRDLQLEIDQLKHRLNKMEEECKLERNQSLKLKNDIENRPRKEQVLELERENEMLKTKIQELQSIIQAGKRSLPDSDKAILDILEHDRKEALEDRQELVNKIYNLQEEVRQAEELRDKYLEEKEDLELKCSTLGKDCEMYKHRMNTVMLQLEEVERERDQAFHSRDEAQTQYSQCLIEKDKYRKQIRELEEKNDEMRIEMVRREACIVNLESKLRRLSKDNGSLDQSLPRHLPATIISQNLGDTSPRTNGQEADDSSTSEESPEDSKYFLPYHPPRRRMNLKGIQLQRAKSPISMKQASEFQALMRTVKGHEEDFTDGSPSSSRSLPVTSSFSKMQPHRSRSSIMSITAEPPGNDSIVRRCKEDAPHRSTVEEDNDSCGFDALDLDDENHERYSFGPPSIHSSSSSHQSEGLDAYDLEQVNLMLRKFSLERPFRPSVTSGGHVRGTGPLVQHTTLNGDGLITQLTLLGGNARGSFIHSVKPGSLAERAGLREGHQLLLLEGCIRGERQSVPLDACTKEEARWTIQRCSGLITLHYKVNHEGYRKLLKEMEDGLITSGDSFYIRLNLNISSQLDACSMSLKCDDVVHVLDTMYQDRHEWLCARVDPFTDQDLDTGTIPSYSRAQQLLLVKLQRLVHRGNREEADSAHHTLRSLRNTLQPEEMLSTSDPRVSPRLSRASFFFGQLLQFVSRSENKYKRMNSNERVRIISGSPLGSLSRSSLDATKLLTEKHEELDPENELSRNLTLIPYSLVRAFHCERRRPVLFTPTMLAKTLVQKLLNSGGAMEFTICKSDIVTRDEFLRKQKTETIIYSREKNPNTFECIVPANIEAVAAKNKHCLLEAGIGCVRDLIKCKVYPIVLLIRVSEKNIKRFRKLLPRPETEEEFLRVCRLKEKELEALPCLYATVEAEMWSSVEELLRVLKDKIVEEQRKTIWVDEDQL
